Patent US9433687B2, “Anti-Notch3 antibodies and antibody-drug conjugates” (Pfizer Inc., priority 2012, dated 2016)

How the values were obtained:
[1] = target: T1, cell surface Notch3 on HCC2429 cells (Homo sapiens, UniProt Q9UM47); assay: Cell-based ELISA, HCC2429 cells; conditions: Table 29; LB = lacked binding
T1 construct: endogenous Notch3 expressing cell lines, HCC2429 and MDA-MB-468; endogenous in cells; host or cells: HCC2429
Protocol: Unconjugated anti-Notch3 antibodies, anti-Notch3 ADCs and a negative control antibody (huNeg8.8) were screened for cell surface binding activity to Notch3 expressing cell lines in a cell-based ELISA. Over-expressing Notch3 cell line, U2OS/hNotch3, and endogenous Notch3 expressing cell lines, HCC2429 and MDA-MB-468, were plated at 50,000, 200,000 and 100,000 cells/well, respectively, in 96 well plates (white opaque, BD/VWR) the day before ELISA assay. On the day of the ELISA, culture media was removed from wells and serially diluted (1:3 in DPBS with calcium chloride and magnesium chloride (Ca/Mg) and 1% BSA) antibody and ADC solutions were applied to the plate. Plates were incubated at room temperature for 2 hours before washed with DPBS with Ca/Mg and 1% BSA. HRP-conjugated secondary antibody was then applied and incubated with cells for 1 hour. Plates were washed with DPBS with Ca/Mg and 1% BSA before being developed with Pico-Chemiluminescent developing kit (Thermal Scientific), and chemiluminescence measurements were performed per manufacturer's instructions. Data plotting and analyses were performed with Microsoft Excel and Graphpad-Prism software.
Unconjugated cysteine mutant humanized anti-Notch3 antibodies were screened for cell surface binding activity to Notch3 expressing cell lines in a cell-based ELISA, as described in previous Examples. […]

[2] = target: T2, cell surface Notch3 on OVCAR3 cells (Homo sapiens, UniProt Q9UM47); assay: Cell-based ELISA, OVCAR3 cells; conditions: Table 29; LB = lacked binding
T2 construct: Notch3 endogenously expressing cells MDA-MB-468, HCC2429 and OVCAR3; endogenous in cells; host or cells: OVCAR3
T2 sequence (Q9UM47 40-2321): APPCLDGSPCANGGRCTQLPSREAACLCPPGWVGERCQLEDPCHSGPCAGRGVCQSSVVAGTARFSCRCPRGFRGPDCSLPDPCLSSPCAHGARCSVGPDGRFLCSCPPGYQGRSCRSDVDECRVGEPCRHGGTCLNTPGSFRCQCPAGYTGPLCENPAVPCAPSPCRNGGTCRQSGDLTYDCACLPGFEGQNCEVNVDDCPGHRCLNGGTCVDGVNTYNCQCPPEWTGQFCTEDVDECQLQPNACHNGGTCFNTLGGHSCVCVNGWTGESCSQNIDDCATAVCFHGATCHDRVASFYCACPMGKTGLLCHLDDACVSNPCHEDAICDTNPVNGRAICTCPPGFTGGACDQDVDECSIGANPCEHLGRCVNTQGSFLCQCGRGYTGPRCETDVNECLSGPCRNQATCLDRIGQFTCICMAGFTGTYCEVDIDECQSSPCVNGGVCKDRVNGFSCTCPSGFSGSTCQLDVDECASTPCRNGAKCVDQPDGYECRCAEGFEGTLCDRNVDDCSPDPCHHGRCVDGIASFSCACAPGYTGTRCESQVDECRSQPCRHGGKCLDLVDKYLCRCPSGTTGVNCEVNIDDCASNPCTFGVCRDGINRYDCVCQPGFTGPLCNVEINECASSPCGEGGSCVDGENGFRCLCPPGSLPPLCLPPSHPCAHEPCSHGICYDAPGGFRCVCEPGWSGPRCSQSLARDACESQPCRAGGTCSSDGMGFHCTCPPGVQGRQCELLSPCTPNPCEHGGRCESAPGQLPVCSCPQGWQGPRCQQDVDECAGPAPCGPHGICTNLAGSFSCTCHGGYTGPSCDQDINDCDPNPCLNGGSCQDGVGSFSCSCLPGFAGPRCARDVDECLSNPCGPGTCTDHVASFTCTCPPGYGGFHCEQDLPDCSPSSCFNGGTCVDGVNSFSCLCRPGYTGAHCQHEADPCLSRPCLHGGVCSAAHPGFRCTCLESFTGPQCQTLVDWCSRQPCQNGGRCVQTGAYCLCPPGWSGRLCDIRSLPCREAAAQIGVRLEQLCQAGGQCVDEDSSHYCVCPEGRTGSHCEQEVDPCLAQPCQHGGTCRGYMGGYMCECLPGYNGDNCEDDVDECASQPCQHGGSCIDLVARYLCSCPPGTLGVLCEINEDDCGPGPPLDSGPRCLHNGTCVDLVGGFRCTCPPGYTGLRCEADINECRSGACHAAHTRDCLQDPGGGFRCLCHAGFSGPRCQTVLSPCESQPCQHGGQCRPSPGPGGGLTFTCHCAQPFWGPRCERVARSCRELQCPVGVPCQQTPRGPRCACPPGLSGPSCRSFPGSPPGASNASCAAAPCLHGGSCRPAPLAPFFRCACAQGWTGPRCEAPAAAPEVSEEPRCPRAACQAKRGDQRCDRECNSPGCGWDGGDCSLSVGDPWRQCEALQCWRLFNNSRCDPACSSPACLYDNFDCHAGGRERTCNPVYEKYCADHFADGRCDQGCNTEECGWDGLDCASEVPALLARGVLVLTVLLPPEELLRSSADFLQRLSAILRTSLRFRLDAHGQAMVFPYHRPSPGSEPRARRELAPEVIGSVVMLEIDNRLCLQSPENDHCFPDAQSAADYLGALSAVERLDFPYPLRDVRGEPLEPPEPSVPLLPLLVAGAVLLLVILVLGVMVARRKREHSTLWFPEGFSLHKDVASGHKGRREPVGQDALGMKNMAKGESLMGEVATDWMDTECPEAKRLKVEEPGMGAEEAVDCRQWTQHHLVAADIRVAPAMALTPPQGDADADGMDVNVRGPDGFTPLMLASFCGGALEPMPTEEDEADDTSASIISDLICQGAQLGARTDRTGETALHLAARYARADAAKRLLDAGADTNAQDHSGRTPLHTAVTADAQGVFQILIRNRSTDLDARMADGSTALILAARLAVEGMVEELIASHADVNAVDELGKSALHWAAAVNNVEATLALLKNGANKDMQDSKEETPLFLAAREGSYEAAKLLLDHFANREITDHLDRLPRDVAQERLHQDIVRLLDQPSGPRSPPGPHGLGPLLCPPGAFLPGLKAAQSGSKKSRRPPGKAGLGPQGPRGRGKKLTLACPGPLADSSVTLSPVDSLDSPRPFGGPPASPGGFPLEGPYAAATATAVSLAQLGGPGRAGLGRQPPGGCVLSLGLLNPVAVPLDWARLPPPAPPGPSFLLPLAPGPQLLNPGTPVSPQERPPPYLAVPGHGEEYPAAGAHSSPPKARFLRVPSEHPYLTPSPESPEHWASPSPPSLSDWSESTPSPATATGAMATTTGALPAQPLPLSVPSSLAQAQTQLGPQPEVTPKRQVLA

MDA-MB-468 = target: T3, MDA-MB-468 (Homo sapiens, UniProt Q9UM47); assay: Flow cytometry (FACS) binding, MDA-MB-468; conditions: 4 μg/mL antibody
T3 construct: endogenous Notch3 expressing cell lines, HCC2429 and MDA-MB-468; endogenous in cells; host or cells: MDA-MB-468
T3 sequence (Q9UM47 40-2321): as above
Protocol: Unconjugated anti-Notch3 antibodies, hu28 and hu75, were examined for cell surface binding activity to Notch3 expressing cell lines by flow cytometry. Fluorescence activated cell sorting (FACS) analysis was conducted according to standard procedures. Cells were rinsed in HBSS with calcium chloride and magnesium chloride (herein termed HBSS++), harvested using trypsin without EDTA and neutralized with medium containing FBS. Cells were incubated on ice for 30 minutes with 4 μg/mL anti-Notch3 antibodies, hu28 and hu75, in HBSS++containing 3% HICS (heat-inactivated calf serum). Cells were washed three times with cold HBSS++, 3% HICS buffer. Cells were incubated in allophycocyanin-conjugated AffiniPure F(ab′)2 fragment goat anti-human IgG, Fc fragment secondary antibody (Jackson ImmunoResearch Laboratories, Inc., West Grove, Pa.) at 10 μg/mL for 30 minutes on ice in the dark. Cells were washed once with cold HBSS++/3% HICS buffer. Cells were resuspended in HBSS-++/3% HICS, 25 mM HEPES, 1 mM MgCl2 and 25 μg/ml DNaseI. 7-AAD (7-Amino-Actinomycin D) was added for exclusion of nonviable cells. Live cells were analyzed on a BD FACSCalibur flow cytometer (BD Biosciences, San Jose, Calif.). Mean fluorescence intensity (MFI) from channel FL-4 was calculated with FlowJo flow cytometry analysis software (Ashland, Oreg.).

[3] = system: Site 2 (S2)-cleavage of the Notch3 receptor in HCC2429 and MDA-MB-468 cells; assay: S2-cleavage assay (western blot, D11B8); format: cell-based, human; conditions: 5 μg/ml, 24 hours; FIG. 9
Protocol: To confirm that binding of anti-Notch3 antibody hu75, but not hu28, to the NRR domain of Notch3 is accompanied by a decrease in S2-cleavage, western blot analysis was performed. The rabbit monoclonal anti-Notch3 antibody D11B8 (Cell Signaling Technologies) recognizes the Notch3 C-terminal fragments that are products of S1 and S2 proteolytic cleavage events. […] The anti-Notch3 antibody hu28 bound to LNR-C and HD1 domains that are located on a linear, covalently linked region of the NRR domain that is N-terminal to the S1-site. An inhibitory antibody is expected to decrease the detection of S2-cleaved Notch3 by stabilizing the NRR domain in an auto-inhibitory conformation thus preventing S2-cleavage, while a non-inhibitory antibody is not expected to have an effect on S2-cleavage.
Site 2 (S2)-cleavage of the Notch3 receptor was assessed by western blot analysis of the protein using the D11B8 (Cell Signaling Technologies) antibody which recognizes an epitope surrounding Glu2312 in the C-terminal domain. HCC2429 and MDA-MB-468 breast cancer cells were used to examine the effects of inhibitory anti-Notch3 antibody hu75 and non-inhibitory anti-Notch3 antibody hu28 on S2-cleavage. For the assay, 1-2.5×10^6 cells were plated in complete growth medium. […] Notch3 was detected with D11B8 antibody and, as a loading control, anti-GAPDH (Sigma) using standard western blot procedures.

HCC2429 lung xenografts = assay: HCC2429 lung xenograft model (unconjugated antibodies); format: in vivo, mouse; conditions: for tumor volume (mm^3 ± SEM): iv Q4dx4
Protocol: Additional in vivo experiments were performed with the HCC2429 lung cancer cell line using an unconjugated rat-human chimeric anti-Notch3 antibody, ch75-hIgG1, to determine whether ch75-hIgG1's Notch3 signaling inhibition contributed to the observed potency of the anti-Notch3 hu75-ADCs. To generate xenografts, nude (Nu/Nu) female mice were implanted subcutaneously with 3.5×10^6 HCC2429 cells in 50% Matrigel (BD Biosciences).
The HCC2429 lung model was dosed intravenously Q4d×4 with PBS vehicle, rat-human chimeric anti-Notch3 antibody, ch75-hIgG1, and humanized anti-Notch1 antibody, hu438 VH1.1/VL1.8, at the does provided in Table 22. From 8 animals, mean tumor masses (±SEM) for each treatment group were calculated and compared to the control PBS vehicle group. P-values based on analysis of variance (ANOVA) were calculated to determine statistical significance of observed growth inhibition of anti-Notch treatments versus control PBS using Excel built-in statistical functions. Percent (%) growth inhibition values were calculated from measurements on the final day of the study for drug-treated compared with vehicle-treated mice with the formula 100*{1−[(TreatedDay 14−TreatedDay 0)/(ControlDay 14−ControlDay 0)]}.

T1 sequence (Q9UM47 40-2321): as above

B1: hu28 VH1.0/VL1.0: humanized r28 variant VH1.0/VL1.0, anti-Notch3 antibody (VH SEQ ID NO: 13, VL SEQ ID NO: 25) (antibody, V domains shown)
VH: EVQLVESGGGLVQPGGSLRLSCAASGFTFRDYGMTWVRQAPGKGLEWVAYISSGSNYIYYAEAVKGRFTISRDNAKNSLYLQMNSLRAEDTAVYYCARRGPFVLDAWGQGTLVTVSS
VL: DIQMTQSPSSLSASVGDRVTITCKASQSINRYLHWYQQKPGKAPKLLIYNANGLQTGVPSRFSGSGSGTDFTLTISSLQPEDFATYYCLQHNTWPDTFGGGTKVEIK
- EC50 [1]: 0.1 nM
- EC50 [2]: 0.46 nM
- MFI (MDA-MB-468): 557
- detection of S1- and S2-cleaved Notch3 C-terminal fragments [3]: both S1- and S2-cleaved Notch3 C-terminal fragments were detected

B2: ch75: rat-human chimeric anti-Notch3 antibody 75, rat variable regions fused with human IgG1 and human kappa (antibody, V domains shown)
VH: QVKLLQSGAALVKPGASVKMSCKASGYAFTDYWVTWVKQSHGKSLEWIGEISPNSGGTNFNEKFKGKATLTVDKSTSTAYMELSRLTSEDSAIYYCTRGEIRYNWFAYWGQGTLVTVSS
VL: NIVMTQSPKSMSISVGDRVTMNCKASQNVGNNIAWYQQKPGQSPKLLIYYASNRYTGVPDRFTGGGYGTDFTLTINSMQAEDAAFYYCQRLYNSPFTFGSGTKLEIK
- tumor volume (mm^3 ± SEM) (HCC2429 lung xenografts; Day 0, dose not given): 110 ± 5 mm^3
- tumor volume (mm^3 ± SEM) (HCC2429 lung xenografts; Day 3): 211 ± 24 mm^3
- tumor volume (mm^3 ± SEM) (HCC2429 lung xenografts; Day 5): 356 ± 41 mm^3
- tumor volume (mm^3 ± SEM) (HCC2429 lung xenografts; Day 7): 574 ± 59 mm^3
- tumor volume (mm^3 ± SEM) (HCC2429 lung xenografts; Day 10): 1054 ± 104 mm^3
- tumor volume (mm^3 ± SEM) (HCC2429 lung xenografts; Day 12): 1441 ± 139 mm^3
- tumor volume (mm^3 ± SEM) (HCC2429 lung xenografts; Day 14): 1821 ± 175 mm^3
- tumor growth inhibition compared to PBS vehicle (HCC2429 lung xenografts; final day of the study (Day 14)): did not inhibit tumor growth
